T1: human GIP receptor (human) (UniProt P48546)
T1 sequence (looked up): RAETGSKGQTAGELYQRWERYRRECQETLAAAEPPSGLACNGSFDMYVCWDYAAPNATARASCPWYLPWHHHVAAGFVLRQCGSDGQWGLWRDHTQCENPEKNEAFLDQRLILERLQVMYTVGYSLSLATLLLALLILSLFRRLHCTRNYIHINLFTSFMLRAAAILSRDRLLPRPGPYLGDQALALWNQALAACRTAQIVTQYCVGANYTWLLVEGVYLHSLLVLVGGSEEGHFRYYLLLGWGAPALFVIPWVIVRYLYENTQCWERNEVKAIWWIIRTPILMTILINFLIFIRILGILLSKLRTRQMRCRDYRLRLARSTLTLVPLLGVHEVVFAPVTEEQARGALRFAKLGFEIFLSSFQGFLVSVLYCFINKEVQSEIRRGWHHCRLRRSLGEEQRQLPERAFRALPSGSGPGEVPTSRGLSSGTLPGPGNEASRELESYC


How the values were obtained:
Assay in all cases: cell-based or functional assay
[1] = molecular target: human glucagon receptor (human) (UniProt P47871)
Sequence of human glucagon receptor (human) (P47871 26-477): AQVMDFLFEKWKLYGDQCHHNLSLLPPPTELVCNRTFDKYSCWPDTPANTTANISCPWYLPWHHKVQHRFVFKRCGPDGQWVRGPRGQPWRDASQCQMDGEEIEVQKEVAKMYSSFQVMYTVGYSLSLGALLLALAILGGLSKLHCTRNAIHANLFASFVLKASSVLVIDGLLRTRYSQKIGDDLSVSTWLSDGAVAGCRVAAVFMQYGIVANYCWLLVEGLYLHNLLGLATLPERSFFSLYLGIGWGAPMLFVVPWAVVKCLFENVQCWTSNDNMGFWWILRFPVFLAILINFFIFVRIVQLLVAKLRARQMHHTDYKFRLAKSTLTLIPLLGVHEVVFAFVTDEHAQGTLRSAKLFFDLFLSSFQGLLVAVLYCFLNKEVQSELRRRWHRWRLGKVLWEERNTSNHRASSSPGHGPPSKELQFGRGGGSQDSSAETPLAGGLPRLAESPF

hGLP-1R = hGLP-1R (Homo sapiens, UniProt P43220)
Sequence of hGLP-1R (P43220 24-463): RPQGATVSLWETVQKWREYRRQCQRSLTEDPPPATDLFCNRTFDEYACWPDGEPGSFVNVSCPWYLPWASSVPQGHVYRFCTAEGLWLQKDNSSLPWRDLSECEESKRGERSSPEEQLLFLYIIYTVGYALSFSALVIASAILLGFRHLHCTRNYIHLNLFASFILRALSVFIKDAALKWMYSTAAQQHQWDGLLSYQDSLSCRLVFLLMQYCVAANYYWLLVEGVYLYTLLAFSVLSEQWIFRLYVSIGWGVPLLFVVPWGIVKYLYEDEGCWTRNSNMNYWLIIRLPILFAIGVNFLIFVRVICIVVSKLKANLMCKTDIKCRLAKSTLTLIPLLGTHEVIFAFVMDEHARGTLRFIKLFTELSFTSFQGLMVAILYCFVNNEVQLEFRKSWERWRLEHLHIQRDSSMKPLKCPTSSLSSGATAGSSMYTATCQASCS

[2] = molecular target: T1, human GIP receptor (human)

| Binder | Relative cAMP EC50 [1] [nM] | cAMP Rel EC50, nM (1% HSA) [1] [nM] | Relative cAMP EC50 (hGLP-1R) [nM] | cAMP Rel EC50, nM (1% HSA) (hGLP-1R) [nM] | Relative cAMP EC50 [2] [nM] | cAMP Rel EC50, nM (1% HSA) [2] [nM] |
| --- | --- | --- | --- | --- | --- | --- |
| YXQGTXTSDYSIXLDKKAQXAFIEYLEEGGPSSGAPPPSEG (synthetic construct; SITE 2: note = 2-Aminoisobutyric Acid; SITE 6: note = alpha-methyl-L-phenylalanine; SITE 13: note = alpha-methyl-leucine; SITE 17: note = Lysine is chemically modified through conjugation of the epsilon-amino group of the Lysine side chain with (2-[2-(2-Amino-ethoxy)-ethoxy]-ace)) [Example 395] | 5.55 | 1190 | 0.349 | 34.7 | 0.0248 | 6.69 |
| YXQGTXTSDYSILLDKKAQXAFIEXLEEGGPSSGAPPPSEG (synthetic construct; SITE 2: note = 2-Aminoisobutyric Acid; SITE 6: note = alpha-methyl-2-fluoro-L-phenylalanine; SITE 17: note = Lysine is chemically modified through conjugation of the epsilon-amino group of the Lysine side chain with (2-[2-(2-Amino-ethoxy)-ethoxy]-acetyl)-(gamma-Glu)-CO-(CH2) 16-) [Example 411] | 3.94 | 1170 | 0.709 | 82.1 | 0.058 | 23.8 |
| YXQGTXTSDYSILLDKKAQXAFIEYLEEGGPSSGAPPPSEG (not fully specified; synthetic construct; SITE 2: note = 2-Aminoisobutyric Acid; SITE 6: note = alpha-methyl-2-fluoro-L-phenylalanine; SITE 17: note = Lysine is chemically modified through conjugation of the epsilon-amino group of the Lysine side chain with (2-[2-(2-Amino-ethoxy)-ethoxy]-acetyl)-(gamma-Glu)-CO-(CH2) 16-) [Example 398] | 2.16 | 375 | 0.186 | 42.2 | 0.0318 | 12.4 |
| YXQGTXTSDYSILLDKKAQXAFIEFLEEGGPSSGAPPPSEG (not fully specified; synthetic construct; SITE 2: note = 2-Aminoisobutyric Acid; SITE 6: note = alpha-methyl-2-fluoro-L-phenylalanine; SITE 17: note = Lysine is chemically modified through conjugation of the epsilon-amino group of the Lysine side chain with (2-[2-(2-Amino-ethoxy)-ethoxy]-acetyl)-(gamma-Glu)-CO-(CH2) 16-) [Example 412] | 2.36 | 467 | 0.282 | 46 | 0.0351 | 12.5 |
| YXQGTXTSDYSILLDKKAQXAFIEYLEEGGPSSGAPPPEEG (synthetic construct; SITE 2: note = 2-Aminoisobutyric Acid; SITE 6: note = alpha-methyl-2-fluoro-L-phenylalanine; SITE 17: note = Lysine is chemically modified through conjugation of the epsilon-amino group of the Lysine side chain with (2-[2-(2-Amino-ethoxy)-ethoxy]-acetyl)-(gamma-Glu)-CO-(CH2) 16-) [Example 399] | 1.51 | 560 | 0.302 | 42.8 | 0.0413 | 19.6 |
| YXQGTXTSDYSIXLDXKAQXAFIEYLLEGGPSSGAPPPSEG (synthetic construct; SITE 2: note = 2-Aminoisobutyric Acid; SITE 6: note = alpha-methyl-2-fluoro-L-phenylalanine; SITE 13: note = alpha-methyl-leucine; SITE 16: note = L-ornithine; SITE 17: note = Lysine is chemically modified through conjugation of the epsilon-amino group of the Lysine side chain w) [Example 404] | 4.1 | 735 | 0.217 | 32.2 | 0.0102 | 2.03 |
| YXQGTXTSDXXIXLDXKAQXXFIEXLIEGGPSSGEPPPSEG (synthetic construct; SITE 2: note = 2-Aminoisobutyric Acid; SITE 6: note = alpha-methyl-2-fluoro-L-phenylalanine; SITE 10: note = 3-(4-Pyridyl)-L-alanine; SITE 11: note = alpha-methyl-L-serine; SITE 13: note = alpha-methyl-leucine; SITE 16: note = L-ornithine; SITE 17: note = Lysine is chemically mo) [Example 401] | 1.99 | 111 | 0.213 | 12 | 0.0183 | 1.71 |
| YXQGTXTSDYXIXLDXKAQXXFIEXLEEGGPSSGEPPPEEG (synthetic construct; SITE 2: note = 2-Aminoisobutyric Acid; SITE 6: note = alpha-methyl-2-fluoro-L-phenylalanine; SITE 11: note = alpha-methyl-L-serine; SITE 13: note = alpha-methyl-leucine; SITE 16: note = L-ornithine; SITE 17: note = Lysine is chemically modified through conjugation of the epsilon) [Example 403] | 1.59 | 527 | 0.396 | 70 | 0.0827 | 36.9 |
| YXQGTXTSDYXIXLDXKAQXXFIEXLEEGGPSSGEPPPE (synthetic construct; SITE 2: note = 2-Aminoisobutyric Acid; SITE 6: note = alpha-methyl-2-fluoro-L-phenylalanine; SITE 11: note = alpha-methyl-L-serine; SITE 13: note = alpha-methyl-leucine; SITE 16: note = L-ornithine; SITE 17: note = Lysine is chemically modified through conjugation of the epsilon) [Example 402] | 5.66 | 1030 | 0.725 | 86.6 | 0.123 | 44.9 |
| YXQGTXTSDYXILLDKKAQXAFIEYLEEGGPSSGAPPPS (synthetic construct; SITE 2: note = 2-Aminoisobutyric Acid; SITE 6: note = alpha-methyl-L-phenylalanine; SITE 11: note = alpha-methyl-L-serine; SITE 17: note = Lysine is chemically modified through conjugation of the epsilon-amino group of the Lysine side chain with (2-[2-(2-Amino-ethoxy)-ethoxy]-ac)) [Example 393] | 0.947 | 151 | 0.211 | 29.6 | 0.0458 | 12.4 |
